# Data: patent US20230406901A1
# Target: growth hormone receptor (GHR) on BAF3/GHR cells
# Assay: cell-based or functional assay
substance,measurement,value
"growth hormone fusion protein containing a flexible linker, GH(GGGGS)4 (from UniProt P01861 100-325) (Fc fusion)","EC50(nM), proliferation of BAF3/GHR cells (Alamar-Blue)",3.19 nM
same,"Relative potency, proliferation of BAF3/GHR cells (Alamar-Blue)",37.7%
